Measured values published in the supplement of paper PMC9112550, “Optimization of the antimicrobial peptide Bac7 by deep mutational scanning” (BMC Biology, 2022).

System: Escherichia coli TOP10
Assay: shrunken log2 fold change of peptide-encoding DNA abundance (4.5 h post-induction vs induction); higher = less antimicrobial activity (less host growth inhibition)
Details: time post-induction: 4.5 h; library: site-saturation at positions 5, 18, 19, 20
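Also: peptides expressed intracellularly from a pBAD plasmid library in pooled LB shake-flask culture, induced with 0.3% L-arabinose, DNA abundance read by NGS, three biological replicates, DESeq2 with apeglm shrinkage.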

| Sequence | shrunken log2 fold change |
| --- | --- |
| RRIRIRPPRLPRPRPRPHRSPRP | 0.0394 |
| RRIRLRPPRLPRPRPRPVNVPRP | -0.00443 |
| RRIRVRPPRLPRPRPRPEIMPRP | -0.194 |
| RRIRMRPPRLPRPRPRPLTRPRP | 0.608 |
| RRIRPRPPRLPRPRPRPREHPRP | 0.121 |
| RRIRPRPPRLPRPRPRPFTHPRP | -0.466 |
| RRIRERPPRLPRPRPRPDLDPRP | -0.0232 |
| RRIRMRPPRLPRPRPRPHGPPRP | 0.752 |
| RRIRERPPRLPRPRPRPSYAPRP | -0.176 |
| RRIRARPPRLPRPRPRPVVEPRP | 0.322 |
| RRIRFRPPRLPRPRPRPDAQPRP | 0.483 |
| RRIRYRPPRLPRPRPRPLRWPRP | 0.184 |
| RRIRERPPRLPRPRPRPGLGPRP | 0.602 |
| RRIRIRPPRLPRPRPRPPWHPRP | -0.126 |
| RRIRQRPPRLPRPRPRPFYNPRP | -0.739 |
| RRIRKRPPRLPRPRPRPQMLPRP | -0.167 |
| RRIRCRPPRLPRPRPRPYYVPRP | -0.519 |
| RRIRNRPPRLPRPRPRPDTWPRP | -0.213 |
| RRIRQRPPRLPRPRPRPKGVPRP | -0.00208 |
| RRIRVRPPRLPRPRPRPHLNPRP | -0.455 |
| RRIRYRPPRLPRPRPRPDKEPRP | -0.478 |
| RRIRSRPPRLPRPRPRPKMGPRP | -0.108 |
| RRIRDRPPRLPRPRPRPLQHPRP | 0.0148 |
| RRIRSRPPRLPRPRPRPNYIPRP | -0.757 |
| RRIRWRPPRLPRPRPRPTTNPRP | 0.217 |

| Sequence | shrunken log2 fold change |
| --- | --- |
| RRIRNRPPRLPRPRPRPPFFPRP | 0.162 |
| RRIRHRPPRLPRPRPRPSTRPRP | 0.0896 |
| RRIRLRPPRLPRPRPRPLLPPRP | 0.368 |
| RRIRTRPPRLPRPRPRPYNTPRP | -0.737 |
| RRIRRRPPRLPRPRPRPPLSPRP | 0.996 |
| RRIRVRPPRLPRPRPRPWPEPRP | 0.465 |
| RRIRYRPPRLPRPRPRPDRKPRP | -0.157 |
| RRIRLRPPRLPRPRPRPTECPRP | -0.243 |
| RRIRARPPRLPRPRPRPYAGPRP | -0.534 |
| RRIRSRPPRLPRPRPRPPRGPRP | 0.638 |
| RRIRWRPPRLPRPRPRPEQMPRP | 0.222 |
| RRIRSRPPRLPRPRPRPMLSPRP | 0.149 |
| RRIRDRPPRLPRPRPRPALVPRP | 0.0217 |
| RRIRERPPRLPRPRPRPPTCPRP | -0.0707 |
| RRIRNRPPRLPRPRPRPYSLPRP | -0.965 |
| RRIRHRPPRLPRPRPRPCYYPRP | -0.258 |
| RRIRGRPPRLPRPRPRPHCVPRP | 0.517 |
| RRIRIRPPRLPRPRPRPHETPRP | 0.0188 |
| RRIRDRPPRLPRPRPRPVRVPRP | 0.908 |
| RRIRMRPPRLPRPRPRPMTLPRP | 0.113 |
| RRIRCRPPRLPRPRPRPKWRPRP | 0.422 |
| RRIRLRPPRLPRPRPRPYGIPRP | -0.00489 |
| RRIRARPPRLPRPRPRPYDSPRP | -0.0577 |
| RRIRARPPRLPRPRPRPLEEPRP | 1.04 |
| RRIRCRPPRLPRPRPRPRVCPRP | 0.284 |

| Sequence | shrunken log2 fold change |
| --- | --- |
| RRIRFRPPRLPRPRPRPERFPRP | -0.104 |
| RRIRARPPRLPRPRPRPQPLPRP | 0.209 |
| RRIRCRPPRLPRPRPRPVVWPRP | 0.354 |
| RRIRHRPPRLPRPRPRPLEPPRP | -0.55 |
| RRIRCRPPRLPRPRPRPIHGPRP | -0.33 |
| RRIRARPPRLPRPRPRPSAMPRP | 0.38 |
| RRIRERPPRLPRPRPRPGFEPRP | -0.1 |
| RRIRDRPPRLPRPRPRPKTYPRP | -0.227 |
| RRIRFRPPRLPRPRPRPGLNPRP | 0.207 |
| RRIRTRPPRLPRPRPRPDKDPRP | -0.0511 |
| RRIRKRPPRLPRPRPRPVQCPRP | 0.0223 |
| RRIRDRPPRLPRPRPRPQTFPRP | 0.0361 |
| RRIRGRPPRLPRPRPRPISKPRP | 0.0989 |
| RRIRERPPRLPRPRPRPLWSPRP | -0.125 |
| RRIRCRPPRLPRPRPRPEISPRP | -0.0399 |
| RRIRYRPPRLPRPRPRPVWMPRP | -0.283 |
| RRIRHRPPRLPRPRPRPRMLPRP | -0.192 |
| RRIRCRPPRLPRPRPRPWFNPRP | -1.12 |
| RRIRNRPPRLPRPRPRPFNWPRP | -0.123 |
| RRIRHRPPRLPRPRPRPGSHPRP | -0.226 |
| RRIRTRPPRLPRPRPRPMRNPRP | 0.356 |
| RRIRWRPPRLPRPRPRPDGDPRP | 0.36 |
| RRIRIRPPRLPRPRPRPIYIPRP | -0.159 |
| RRIRYRPPRLPRPRPRPACLPRP | -0.211 |
| RRIRGRPPRLPRPRPRPLRTPRP | 1.69 |

| Sequence | shrunken log2 fold change |
| --- | --- |
| RRIRDRPPRLPRPRPRPGKIPRP | -0.176 |
| RRIRVRPPRLPRPRPRPNVAPRP | 0.177 |
| RRIRERPPRLPRPRPRPVWWPRP | 0.149 |
| RRIRHRPPRLPRPRPRPWLGPRP | -0.0973 |
| RRIRGRPPRLPRPRPRPMMAPRP | 1.38 |
| RRIRLRPPRLPRPRPRPIAEPRP | 0.591 |
| RRIRLRPPRLPRPRPRPPAWPRP | 0.98 |
| RRIRLRPPRLPRPRPRPTFKPRP | -0.0433 |
| RRIRERPPRLPRPRPRPECPPRP | 0.0592 |
| RRIRARPPRLPRPRPRPRHHPRP | 0.0585 |
| RRIRMRPPRLPRPRPRPLWHPRP | 0.336 |
| RRIRVRPPRLPRPRPRPPLSPRP | 0.106 |
| RRIRERPPRLPRPRPRPKCPPRP | 0.0136 |
| RRIRVRPPRLPRPRPRPGQVPRP | 0.0448 |
| RRIRIRPPRLPRPRPRPNRQPRP | -0.56 |
| RRIRARPPRLPRPRPRPIWAPRP | 0.439 |
| RRIRKRPPRLPRPRPRPPLVPRP | 0.598 |
| RRIRARPPRLPRPRPRPIGIPRP | 0.0254 |
| RRIRNRPPRLPRPRPRPYNLPRP | 0.00765 |
| RRIRERPPRLPRPRPRPDTNPRP | -0.183 |
| RRIRVRPPRLPRPRPRPDDRPRP | -0.0538 |
| RRIRDRPPRLPRPRPRPWYGPRP | -0.87 |
| RRIRWRPPRLPRPRPRPQGNPRP | -1.12 |
| RRIRTRPPRLPRPRPRPMHAPRP | -0.112 |
| RRIRARPPRLPRPRPRPDITPRP | 0.491 |

| Sequence | shrunken log2 fold change |
| --- | --- |
| RRIRGRPPRLPRPRPRPMVMPRP | 0.342 |
| RRIRWRPPRLPRPRPRPAQAPRP | 0.237 |
| RRIRFRPPRLPRPRPRPMHPPRP | -0.082 |
| RRIRLRPPRLPRPRPRPKICPRP | 0.0221 |
| RRIRSRPPRLPRPRPRPRSGPRP | 0.237 |
| RRIRWRPPRLPRPRPRPKKWPRP | 0.254 |
| RRIRGRPPRLPRPRPRPPSVPRP | 0.645 |
| RRIRSRPPRLPRPRPRPTQRPRP | 0.547 |
| RRIRKRPPRLPRPRPRPVYPPRP | 0.293 |
| RRIRLRPPRLPRPRPRPRITPRP | -0.027 |
| RRIRPRPPRLPRPRPRPSHYPRP | -0.479 |
| RRIRNRPPRLPRPRPRPMKFPRP | -0.000903 |
| RRIRCRPPRLPRPRPRPFHGPRP | -0.036 |
| RRIRMRPPRLPRPRPRPQNFPRP | 0.0982 |
| RRIRRRPPRLPRPRPRPQSHPRP | -0.0536 |
| RRIRDRPPRLPRPRPRPAGSPRP | 0.19 |
| RRIRARPPRLPRPRPRPKRAPRP | 0.65 |
| RRIRMRPPRLPRPRPRPLELPRP | 0.337 |
| RRIRWRPPRLPRPRPRPQKLPRP | 0.0774 |
| RRIRHRPPRLPRPRPRPLEYPRP | -0.168 |
| RRIRWRPPRLPRPRPRPLRLPRP | 0.804 |
| RRIRERPPRLPRPRPRPQPAPRP | 0.171 |
| RRIRGRPPRLPRPRPRPQGWPRP | 1.04 |
| RRIRHRPPRLPRPRPRPADIPRP | -0.102 |
| RRIRFRPPRLPRPRPRPMRRPRP | 0.542 |

| Sequence | shrunken log2 fold change |
| --- | --- |
| RRIRYRPPRLPRPRPRPMMLPRP | -0.00141 |
| RRIRQRPPRLPRPRPRPNDPPRP | -0.0265 |
| RRIRRRPPRLPRPRPRPQDLPRP | 0.0389 |
| RRIRNRPPRLPRPRPRPVEMPRP | 0.0554 |
| RRIRYRPPRLPRPRPRPFLPPRP | -0.557 |
| RRIRPRPPRLPRPRPRPDWIPRP | -0.444 |
| RRIRERPPRLPRPRPRPWPQPRP | -0.0216 |
| RRIRGRPPRLPRPRPRPWCTPRP | -0.0466 |
| RRIRRRPPRLPRPRPRPVLDPRP | 0.402 |
| RRIRCRPPRLPRPRPRPFAGPRP | -0.175 |
| RRIRHRPPRLPRPRPRPPETPRP | 0.0733 |
| RRIRGRPPRLPRPRPRPPDSPRP | 0.952 |
| RRIRSRPPRLPRPRPRPLNPPRP | -0.0273 |
| RRIRKRPPRLPRPRPRPKSEPRP | 0.0409 |
| RRIRRRPPRLPRPRPRPMHTPRP | 0.322 |
| RRIRQRPPRLPRPRPRPNWLPRP | 0.259 |
| RRIRSRPPRLPRPRPRPVEAPRP | -0.0651 |
| RRIRRRPPRLPRPRPRPQLMPRP | 0.247 |
| RRIRRRPPRLPRPRPRPNIMPRP | -0.359 |
| RRIRQRPPRLPRPRPRPPLCPRP | 0.28 |
| RRIRKRPPRLPRPRPRPDGYPRP | -0.0936 |
| RRIRDRPPRLPRPRPRPGAIPRP | 0.271 |
| RRIRYRPPRLPRPRPRPQFQPRP | -0.718 |
| RRIRRRPPRLPRPRPRPHMEPRP | 0.0679 |
| RRIRLRPPRLPRPRPRPTQSPRP | 0.144 |
